Key:
Assay in all cases: BLI; virus immobilised on APS probe (Gator Prime), PBS as running buffer; three concentrations (serial dilutions) of RDTfR in PBST (PBS, 0.05% Tween-20) applied; global fit, 1:1 binding model
[1] = target: rRDPV-16 virus (rescued from the infectious cDNA clone pRDPV-16 of raccoon dog parvovirus strain RDPV/CL/2016), capsid of VP2 (raccoon dog parvovirus, strain RDPV/CL/2016)
[2] = target: wild-type raccoon dog parvovirus strain RDPV/CL/2016, capsid of VP2 (raccoon dog parvovirus, strain RDPV/CL/2016)
[3] = target: wild-type raccoon dog parvovirus strain RDPV/FLD/2010, capsid of VP2 (raccoon dog parvovirus, strain RDPV/FLD/2010)

Question: How did the Kd [1] turn out when “raccoon dog transferrin receptor ectodomain (recombinant RDTfR, from residue 121, C-terminal 6x His)” was run?
Answer: The Kd was 56.1 nM.

Question: And the koff [1]?
Answer: The koff was 0.00306 s⁻¹.

Question: And the kon [1]?
Answer: Its kon is 54500 M⁻¹ s⁻¹.

Question: What about the Kd [2] of the same substance?
Answer: The Kd was 81.1 nM.

Question: What about the Kd [3] of the same substance?
Answer: The Kd was 103 nM.
